In publication PMC8163975 (The Journal of Biological Chemistry, 2021):

Experiments:
HRAS, mGppNHp-bound = molecular target: T1, HRAS, mGppNHp-bound (human, UniProt P01112-1 1-189); assay: fluorescence polarisation; increasing concentrations of the RA/RB domain as MBP fusion protein (0.002-300 µM; or MBP alone) titrated to mGppNHp-bound RAS protein (1 µM); 30 mM Tris-HCl pH 7.4, 100 mM NaCl, 5 mM MgCl2, 3 mM DTT; Kd from a quadratic ligand-binding equation; settings: both partners purified
T1 construct: human HRAS; Loaded with mGppNHp, a fluorescent non-hydrolysable GTP analogue; That the RAS proteins were the pGEX (GST) constructs is surmised; also called HRAS1; p21HRAS

RIT1, mGppNHp-bound = molecular target: T2, RIT1, mGppNHp-bound (human, UniProt Q92963 1-219); assay: as above; settings: both partners purified
T2 construct: human RIT1; Loaded with mGppNHp
T2 sequence (Q92963 whole entry): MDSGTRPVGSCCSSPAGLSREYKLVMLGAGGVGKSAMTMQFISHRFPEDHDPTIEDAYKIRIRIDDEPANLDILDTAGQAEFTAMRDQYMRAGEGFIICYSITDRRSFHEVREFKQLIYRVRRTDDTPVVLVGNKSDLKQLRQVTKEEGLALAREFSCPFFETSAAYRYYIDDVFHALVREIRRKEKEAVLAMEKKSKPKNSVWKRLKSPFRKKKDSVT

Kd (HRAS, mGppNHp-bound): 40 µM | Kd (RIT1, mGppNHp-bound): 150 µM
B1: RASSF9-to-5 variant of the RASSF9 RA domain, MBP fusion protein (domain or fragment, human, UniProt O75901 25-119, looked up)
chain: EEKEIVVWVCQEEKLDCIKTLHTTSADVIQALLEEHEATFGEKRFLLGKPSDYCIIEKWRGSERVLPPLTRILKLWKAWGDEQPNMQFVLVKADA
notes: RASSF9 RA domain (aa 25-119 of O75901, the limits of the wild-type construct) with five hotspot residues changed to those of RASSF5; source: gene synthesis (BioCat) in pMal-c5X-His vector; E. coli, purified
